Columns and labels:
Assay in all cases: cell-based or functional assay
hGLP-1R = hGLP-1R (Homo sapiens, UniProt P43220)
[1] = target: T1, human GIP receptor (human) (UniProt P48546)
T1 sequence (looked up): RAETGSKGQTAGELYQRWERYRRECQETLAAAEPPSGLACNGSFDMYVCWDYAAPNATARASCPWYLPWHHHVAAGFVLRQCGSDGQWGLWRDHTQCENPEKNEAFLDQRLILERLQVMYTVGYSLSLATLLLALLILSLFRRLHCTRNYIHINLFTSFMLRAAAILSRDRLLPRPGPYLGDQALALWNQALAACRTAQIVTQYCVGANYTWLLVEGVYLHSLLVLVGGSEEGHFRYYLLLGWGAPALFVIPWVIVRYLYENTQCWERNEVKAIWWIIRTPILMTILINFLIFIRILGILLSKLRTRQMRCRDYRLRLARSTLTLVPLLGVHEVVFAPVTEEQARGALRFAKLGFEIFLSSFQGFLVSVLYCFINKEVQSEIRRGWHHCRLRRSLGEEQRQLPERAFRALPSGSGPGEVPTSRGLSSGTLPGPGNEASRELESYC

[2] = target: human glucagon receptor (human) (UniProt P47871)
Sequence of human glucagon receptor (human) (P47871 26-477): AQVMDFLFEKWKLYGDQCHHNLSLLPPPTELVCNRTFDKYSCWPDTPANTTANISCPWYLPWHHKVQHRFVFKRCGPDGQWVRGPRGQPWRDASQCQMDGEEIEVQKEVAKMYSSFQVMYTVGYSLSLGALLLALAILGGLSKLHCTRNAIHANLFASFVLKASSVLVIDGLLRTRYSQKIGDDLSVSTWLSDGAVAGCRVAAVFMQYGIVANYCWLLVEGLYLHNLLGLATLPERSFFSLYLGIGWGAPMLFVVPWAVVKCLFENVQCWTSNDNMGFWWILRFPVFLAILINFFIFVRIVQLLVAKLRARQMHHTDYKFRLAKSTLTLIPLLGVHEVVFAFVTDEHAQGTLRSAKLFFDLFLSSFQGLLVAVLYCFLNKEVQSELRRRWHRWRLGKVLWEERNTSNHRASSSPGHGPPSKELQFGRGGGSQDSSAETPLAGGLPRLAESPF

Sequence of hGLP-1R (P43220 24-463): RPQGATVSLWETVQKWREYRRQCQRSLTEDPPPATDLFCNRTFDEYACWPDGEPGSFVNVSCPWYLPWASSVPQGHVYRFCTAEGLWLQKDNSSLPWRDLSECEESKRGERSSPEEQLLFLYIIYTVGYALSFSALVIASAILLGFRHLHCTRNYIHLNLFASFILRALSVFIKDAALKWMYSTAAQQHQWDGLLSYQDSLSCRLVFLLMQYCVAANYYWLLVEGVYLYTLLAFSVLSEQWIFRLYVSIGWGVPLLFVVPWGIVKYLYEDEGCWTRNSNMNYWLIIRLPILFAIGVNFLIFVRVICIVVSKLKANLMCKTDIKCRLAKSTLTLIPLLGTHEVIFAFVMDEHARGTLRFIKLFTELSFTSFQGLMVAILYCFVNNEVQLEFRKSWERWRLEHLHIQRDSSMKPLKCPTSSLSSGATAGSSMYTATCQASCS

B1: Example 800 (peptide)
chain: YXQGTFTSDFSXXLDKKAQXAFIEYLIEXGPSSGAPPPSGS
modifications: synthetic construct; SITE 2: note = 2-Aminoisobutyric Acid; SITE 12: note = (S)-2,3-diaminopropanoic acid; SITE 13: note = alpha-methyl-leucine; SITE 17: note = Lysine is chemically modified through conjugation of the epsilon-amino group of the Lysine side chain with (2-[2-(2-Amino-ethoxy)-ethoxy]-a)
hGLP-1R
  Relative cAMP EC50: 0.486 nM
  cAMP Rel EC50 (1% HSA): 164 nM
[1]
  Relative cAMP EC50: 0.283 nM
  cAMP Rel EC50 (1% HSA): 40.2 nM
[2]
  Relative cAMP EC50: 21 nM
  cAMP Rel EC50 (1% HSA): 2500 nM

B2: Example 801 (peptide)
chain: YXQGTFTSDXSKXLDKKAQXAFIEYLIEXGPSSGAPPPSGS
modifications: synthetic construct; SITE 2: note = 2-Aminoisobutyric Acid; SITE 10: note = 3-(4-Pyridyl)-L-alanine; SITE 13: note = alpha-methyl-leucine; SITE 17: note = Lysine is chemically modified through conjugation of the epsilon-amino group of the Lysine side chain with (2-[2-(2-Amino-ethoxy)-ethoxy]-acetyl)
hGLP-1R
  Relative cAMP EC50: 0.938 nM
  cAMP Rel EC50 (1% HSA): 133 nM
[1]
  Relative cAMP EC50: 0.147 nM
  cAMP Rel EC50 (1% HSA): 18.1 nM
[2]
  Relative cAMP EC50: 5.51 nM
  cAMP Rel EC50 (1% HSA): 1200 nM

B3: Example 804 (peptide)
chain: YXQGTFTSDFSXXLDKKAQXAFIEYLIEXSPSSGAPPPSGS
modifications: synthetic construct; SITE 2: note = 2-Aminoisobutyric Acid; SITE 12: note = L-ornithine; SITE 13: note = alpha-methyl-leucine; SITE 17: note = Lysine is chemically modified through conjugation of the epsilon-amino group of the Lysine side chain with (2-[2-(2-Amino-ethoxy)-ethoxy]-acetyl)-(gamma-Glu)
hGLP-1R
  Relative cAMP EC50: 0.915 nM
  cAMP Rel EC50 (1% HSA): 161 nM
[1]
  Relative cAMP EC50: 0.0751 nM
  cAMP Rel EC50 (1% HSA): 17.6 nM
[2]
  Relative cAMP EC50: 11.5 nM
  cAMP Rel EC50 (1% HSA): 2310 nM

B4: Example 805 (peptide)
chain: YXQGTFTSDFSKXLDKKAQXAFIEYLIEXSPSSGAPPPSGS
modifications: synthetic construct; SITE 2: note = 2-Aminoisobutyric Acid; SITE 13: note = alpha-methyl-leucine; SITE 17: note = Lysine is chemically modified through conjugation of the epsilon-amino group of the Lysine side chain with (2-[2-(2-Amino-ethoxy)-ethoxy]-acetyl)-(gamma-Glu)-CO-(CH2) 16-CO2H; SITE 20: n
hGLP-1R
  Relative cAMP EC50: 0.715 nM
  cAMP Rel EC50 (1% HSA): 146 nM
[1]
  Relative cAMP EC50: 0.0875 nM
  cAMP Rel EC50 (1% HSA): 13 nM
[2]
  Relative cAMP EC50: 3.97 nM
  cAMP Rel EC50 (1% HSA): 1210 nM

B5: Example 806 (peptide)
chain: YXQGTFTSDFSRXLDKKAQXAFIEYLIEXSPSSGAPPPSGS
modifications: synthetic construct; SITE 2: note = 2-Aminoisobutyric Acid; SITE 13: note = alpha-methyl-leucine; SITE 17: note = Lysine is chemically modified through conjugation of the epsilon-amino group of the Lysine side chain with (2-[2-(2-Amino-ethoxy)-ethoxy]-acetyl)-(gamma-Glu)-CO-(CH2) 16-CO2H; SITE 20: n
hGLP-1R
  Relative cAMP EC50: 0.706 nM
  cAMP Rel EC50 (1% HSA): 128 nM
[1]
  Relative cAMP EC50: 0.124 nM
  cAMP Rel EC50 (1% HSA): 15.1 nM
[2]
  Relative cAMP EC50: 8.25 nM
  cAMP Rel EC50 (1% HSA): 2760 nM

B6: Example 77 (peptide)
chain: YXQGTFTSDFSRXLDKKAQXAFIEYLLAGGPSSGAPPPSGS
modifications: synthetic construct; SITE 2: note = 2-Aminoisobutyric Acid; SITE 13: note = alpha-methyl-leucine; SITE 17: note = Lysine is chemically modified through conjugation of the epsilon-amino group of the Lysine side chain with (2-[2-(2-Amino-ethoxy)-ethoxy]-acetyl)-(gamma-Glu)-CO-(CH2) 18-CO2H; SITE 20: n
hGLP-1R
  Relative cAMP EC50: 1.85 nM
  cAMP Rel EC50, nM (in the presence of 1% HSA): 339 nM
[1]
  Relative cAMP EC50: 0.168 nM
  cAMP Rel EC50, nM (in the presence of 1% HSA): 37.9 nM
[2]
  Relative cAMP EC50: 15.3 nM
  cAMP Rel EC50, nM (in the presence of 1% HSA): 2610 nM

B7: Example 820 (peptide)
chain: YXQGTFTSDXSQXLDKKAQXAFIEYLLEAGPSSGAPPPSGS
modifications: synthetic construct; SITE 2: note = 2-Aminoisobutyric Acid; SITE 10: note = 3-(4-Pyridyl)-L-alanine; SITE 13: note = alpha-methyl-leucine; SITE 17: note = Lysine is chemically modified through conjugation of the epsilon-amino group of the Lysine side chain with (2-[2-(2-Amino-ethoxy)-ethoxy]-acetyl)
hGLP-1R
  Relative cAMP EC50: 2.78 nM
  cAMP Rel EC50 (1% HSA): 299 nM
[1]
  Relative cAMP EC50: 0.121 nM
  cAMP Rel EC50 (1% HSA): 17.5 nM
[2]
  Relative cAMP EC50: 6.83 nM
  cAMP Rel EC50 (1% HSA): 1270 nM

B8: Example 822 (peptide)
chain: YXQGTFTSDXSQXLDKKAQXAFIEYLLEAGPSSGAPPPSGX
modifications: synthetic construct; SITE 2: note = 2-Aminoisobutyric Acid; SITE 10: note = 3-(4-Pyridyl)-L-alanine; SITE 13: note = alpha-methyl-leucine; SITE 17: note = Lysine is chemically modified through conjugation of the epsilon-amino group of the Lysine side chain with (2-[2-(2-Amino-ethoxy)-ethoxy]-acetyl)
hGLP-1R
  Relative cAMP EC50: 2.51 nM
  cAMP Rel EC50 (1% HSA): 322 nM
[1]
  Relative cAMP EC50: 0.186 nM
  cAMP Rel EC50 (1% HSA): 18.1 nM
[2]
  Relative cAMP EC50: 11.6 nM
  cAMP Rel EC50 (1% HSA): 2100 nM

B9: Example 823 (peptide)
chain: YXQGTFTSDXSQXLDKKAQXAFIEYLLEAGPSSGAPPPSGT
modifications: synthetic construct; SITE 2: note = 2-Aminoisobutyric Acid; SITE 10: note = 3-(4-Pyridyl)-L-alanine; SITE 13: note = alpha-methyl-leucine; SITE 17: note = Lysine is chemically modified through conjugation of the epsilon-amino group of the Lysine side chain with (2-[2-(2-Amino-ethoxy)-ethoxy]-acetyl)
hGLP-1R
  Relative cAMP EC50: 2.96 nM
  cAMP Rel EC50 (1% HSA): 421 nM
[1]
  Relative cAMP EC50: 0.171 nM
  cAMP Rel EC50 (1% HSA): 25.6 nM
[2]
  Relative cAMP EC50: 7.75 nM
  cAMP Rel EC50 (1% HSA): 1410 nM

B10: Example 824 (peptide)
chain: YXQGTFTSDXSQXLDKKAQXAFIEYLLEAGPSSXAPPPSGT
modifications: C-terminal amide; acylated; synthetic construct; SITE 2: note = 2-Aminoisobutyric Acid; SITE 10: note = 3-(4-Pyridyl)-L-alanine; SITE 13: note = alpha-methyl-leucine; SITE 17: note = Lysine is chemically modified through conjugation of the epsilon-amino group of the Lysine side chain with (2-[2-(2-Amino-ethoxy)-ethoxy]-acetyl)
hGLP-1R
  Relative cAMP EC50: 2.43 nM
  cAMP Rel EC50 (1% HSA): 343 nM
[1]
  Relative cAMP EC50: 0.123 nM
  cAMP Rel EC50 (1% HSA): 28.9 nM
[2]
  Relative cAMP EC50: 7.92 nM
  cAMP Rel EC50 (1% HSA): 1110 nM

B11: Example 825 (peptide)
chain: YXQGTFTSDXSQXLDKKAQXAFIEYLLEAGPSSXAPPPSGT
modifications: synthetic construct; SITE 2: note = 2-Aminoisobutyric Acid; SITE 10: note = 3-(4-Pyridyl)-L-alanine; SITE 13: note = alpha-methyl-leucine; SITE 17: note = Lysine is chemically modified through conjugation of the epsilon-amino group of the Lysine side chain with (2-[2-(2-Amino-ethoxy)-ethoxy]-acetyl)
hGLP-1R
  Relative cAMP EC50: 3.4 nM
  cAMP Rel EC50 (1% HSA): 303 nM
[1]
  Relative cAMP EC50: 0.12 nM
  cAMP Rel EC50 (1% HSA): 39.3 nM
[2]
  Relative cAMP EC50: 5.53 nM
  cAMP Rel EC50 (1% HSA): 1810 nM
